Data: publication PMC5486051, “BrWRKY65, a WRKY Transcription Factor, Is Involved in Regulating Three Leaf Senescence-Associated Genes in Chinese Flowering Cabbage”
Numbering of substitutions follows the chain as printed.

Legend:
GST-BrWRKY65 [1] = biological target: T1, GST-BrWRKY65 (Brassica rapa var. parachinensis …, UniProt A0ACM8RC22 1-261); experiment: EMSA; shift abolished dose-dependently by unlabeled self competitor (100x, 1000x); LightShift Chemiluminescent EMSA Kit; native polyacrylamide gel (Figure 5 legend; Methods says SDS-PAGE); buffer, salt, pH and temperature not stated; details: protein: recombinant; tags: GST (N-terminal, pGEX-4T-1); label: 5' biotin
T1 sequence (A0ACM8RC22 entry or part of it): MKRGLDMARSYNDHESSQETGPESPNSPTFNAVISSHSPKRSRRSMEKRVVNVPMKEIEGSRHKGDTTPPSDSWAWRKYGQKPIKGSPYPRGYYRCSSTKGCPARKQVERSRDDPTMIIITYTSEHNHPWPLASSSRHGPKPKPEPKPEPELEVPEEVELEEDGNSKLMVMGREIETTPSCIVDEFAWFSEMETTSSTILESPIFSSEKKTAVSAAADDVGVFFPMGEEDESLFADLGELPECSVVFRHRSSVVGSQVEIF

GST-BrWRKY65 [2] = biological target: T1, GST-BrWRKY65; experiment: competition; unlabeled mutant, 100-1000x excess over N3; LightShift Chemiluminescent EMSA Kit; native polyacrylamide gel (Figure 5 legend; Methods says SDS-PAGE); buffer, salt, pH and temperature not stated; details: protein: recombinant; tags: GST (N-terminal, pGEX-4T-1); label: unlabeled
GST-BrWRKY65 [3] = biological target: T1, GST-BrWRKY65; experiment: competition; unlabeled mutant, 100-1000x excess over N1; LightShift Chemiluminescent EMSA Kit; native polyacrylamide gel (Figure 5 legend; Methods says SDS-PAGE); buffer, salt, pH and temperature not stated; details: protein: recombinant; tags: GST (N-terminal, pGEX-4T-1); label: unlabeled
GST-BrWRKY65 [4] = biological target: T1, GST-BrWRKY65; experiment: competition; unlabeled mutant, 100-1000x excess over N2; LightShift Chemiluminescent EMSA Kit; native polyacrylamide gel (Figure 5 legend; Methods says SDS-PAGE); buffer, salt, pH and temperature not stated; details: protein: recombinant; tags: GST (N-terminal, pGEX-4T-1); label: unlabeled

B1: BrDIN1 promoter W-box probe (dsDNA)
DNA 1: CGAGAGACCTGATTAAGAACATCTGACTTCAATTAAACCAATCACACTAC
DNA 2: GTAGTGTGATTGGTTTAATTGAAGTCAGATGTTCTTAATCAGGTCTCTCG
B1: binds (GST-BrWRKY65 [1]).

B2: BrDIN1 mutant W-box competitor (dsDNA)
DNA 1: B1 DNA 1 with C23A, T24A, G25A, C27A, T28A
DNA 2: B1 DNA 2 with A23T, G24T, C26T, A27T, G28T
B2: no binding (GST-BrWRKY65 [2]).

B3: BrNYC1 promoter W-box probe (dsDNA)
DNA 1: GATCGCCAGATTGCAGTGACGGTTGACTTGAATAAAGAAAAATGAAAAAA
DNA 2: TTTTTTCATTTTTCTTTATTCAAGTCAACCGTCACTGCAATCTGGCGATC
B3: binds (GST-BrWRKY65 [1]).

B4: BrNYC1 mutant W-box competitor (dsDNA)
DNA 1: B3 DNA 1 with T23A, T24A, G25A, C27A, T28A
DNA 2: B3 DNA 2 with A23T, G24T, C26T, A27T, A28T
B4: no binding (GST-BrWRKY65 [3]).

B5: BrSGR1 promoter W-box probe (dsDNA)
DNA 1: TTTCACTCGTATCGTAAGATTGTTGACTCCAACACGCAAACAACAAAAAC
DNA 2: GTTTTTGTTGTTTGCGTGTTGGAGTCAACAATCTTACGATACGAGTGAAA
B5: binds (GST-BrWRKY65 [1]).

B6: BrSGR1 mutant W-box competitor (dsDNA)
DNA 1: B5 DNA 1 with T23A, T24A, G25A, C27A, T28A
DNA 2: B5 DNA 2 with A23T, G24T, C26T, A27T, A28T
B6: no binding (GST-BrWRKY65 [4]).
